From PMC7026729 (EBioMedicine, 2020)
Numbering of substitutions follows the chain as printed.

B1: Bacterial lipocalin Blc^G84 (natural protein, E. coli, UniProt P0A901 19-177, looked up)
chain: CSSPTPPRGVTVVNNFDAKRYLGTWYEIARFDHRFERGLEKVTATYSLRDDGGLNVINKGYNPDRGMWQQSEGKAYFTGAPTRAALKVSFFGPFYGGYNVIALDREYRHALVCGPDRDYLWILSRTPTISDEVKQEMLAVATREGFDVSKFIWVQQPGS
B2: Bacterial lipocalin Blc^E84 (natural protein, E. coli, UniProt P0A901 19-177, looked up)
chain: B1 chain with G66E

Biological target: the molecule itself
Experiment: cross-linking

Protein	stoichiometry N
B1	2
B2	2
